B1: sp¦Q8TEX9¦IPO4_HUMAN (protein, UniProt Q8TEX9 1-1081, looked up)
Importin-4: MESAGLEQLLRELLLPDTERIRRATEQLQIVLRAPAALPALCDLLASAADPQIRQFAAVLTRRRLNTRWRRLAAEQRESLKSLILTALQRETEHCVSLSLAQLSATIFRKEGLEAWPQLLQLLQHSTHSPHSPEREMGLLLLSVVVTSRPEAFQPHHRELLRLLNETLGEVGSPGLLFYSLRTLTTMAPYLSTEDVPLARMLVPKLIMAMQTLIPIDEAKACEALEALDELLESEVPVITPYLSEVLTFCLEVARNVALGNAIRIRILCCLTFLVKVKSKALLKNRLLPPLLHTLFPIVAAEPPPGQLDPEDQDSEEEELEIELMGETPKHFAVQVVDMLALHLPPEKLCPQLMPMLEEALRSESPYQRKAGLLVLAVLSDGAGDHIRQRLLPPLLQIVCKGLEDPSQVVRNAALFALGQFSENLQPHISSYSREVMPLLLAYLKSVPLGHTHHLAKACYALENFVENLGPKVQPYLPELMECMLQLLRNPSSPRAKELAVSALGAIATAAQASLLPYFPAIMEHLREFLLTGREDLQPVQIQSLETLGVLARAVGEPMRPLAEECCQLGLGLCDQVDDPDLRRCTYSLFAALSGLMGEGLAPHLEQITTLMLLSLRSTEGIVPQYDGSSSFLLFDDESDGEEEEELMDEDVEEEDDSEISGYSVENAFFDEKEDTCAAVGEISVNTSVAFLPYMESVFEEVFKLLECPHLNVRKAAHEALGQFCCALHKACQSCPSEPNTAALQAALARVVPSYMQAVNRERERQVVMAVLEALTGVLRSCGTLTLKPPGRLAELCGVLKAVLQRKTACQDTDEEEEEEDDDQAEYDAMLLEHAGEAIPALAAAAGGDSFAPFFAGFLPLLVCKTKQGCTVAEKSFAVGTLAETIQGLGAASAQFVSRLLPVLLSTAQEADPEVRSNAIFGMGVLAEHGGHPAQEHFPKLLGLLFPLLARERHDRVRDNICGALARLLMASPTRKPEPQVLAALLHALPLKEDLEEWVTIGRLFSFLYQSSPDQVIDVAPELLRICSLILADNKIPPDTKAALLLLLTFLAKQHTDSFQAALGSLPVDKAQELQAVLGLS
B2: sp¦Q9H845¦ACAD9_HUMAN (protein, UniProt Q9H845 38-621, looked up)
Complex I assembly factor …: AFAKELFLGKIKKKEVFPFPEVSQDELNEINQFLGPVEKFFTEEVDSRKIDQEGKIPDETLEKLKSLGLFGLQVPEEYGGLGFSNTMYSRLGEIISMDGSITVTLAAHQAIGLKGIILAGTEEQKAKYLPKLASGEHIAAFCLTEPASGSDAASIRSRATLSEDKKHYILNGSKVWITNGGLANIFTVFAKTEVVDSDGSVKDKITAFIVERDFGGVTNGKPEDKLGIRGSNTCEVHFENTKIPVENILGEVGDGFKVAMNILNSGRFSMGSVVAGLLKRLIEMTAEYACTRKQFNKRLSEFGLIQEKFALMAQKAYVMESMTYLTAGMLDQPGFPDCSIEAAMVKVFSSEAAWQCVSEALQILGGLGYTRDYPYERILRDTRILLIFEGTNEILRMYIALTGLQHAGRILTTRIHELKQAKVSTVMDTVGRRLRDSLGRTVDLGLTGNHGVVHPSLADSANKFEENTYCFGRTVETLLLRFGKTIMEEQLVLKRVANILINLYGMTAVLSRASRSIRIGLRNHDHEVLLANTFCVEAYLQNLFSLSQLDKYAPENLDEQIKKVSQQILEKRAYICAHPLDRTC
B3: sp¦Q92973¦TNPO1_HUMAN (protein, UniProt Q92973 1-898, looked up)
Transportin-1: MVWDRQTKMEYEWKPDEQGLQQILQLLKESQSPDTTIQRTVQQKLEQLNQYPDFNNYLIFVLTKLKSEDEPTRSLSGLILKNNVKAHFQNFPNGVTDFIKSECLNNIGDSSPLIRATVGILITTIASKGELQNWPDLLPKLCSLLDSEDYNTCEGAFGALQKICEDSAEILDSDVLDRPLNIMIPKFLQFFKHSSPKIRSHAVACVNQFIISRTQALMLHIDSFIENLFALAGDEEPEVRKNVCRALVMLLEVRMDRLLPHMHNIVEYMLQRTQDQDENVALEACEFWLTLAEQPICKDVLVRHLPKLIPVLVNGMKYSDIDIILLKGDVEEDETIPDSEQDIRPRFHRSRTVAQQHDEDGIEEEDDDDDEIDDDDTISDWNLRKCSAAALDVLANVYRDELLPHILPLLKELLFHHEWVVKESGILVLGAIAEGCMQGMIPYLPELIPHLIQCLSDKKALVRSITCWTLSRYAHWVVSQPPDTYLKPLMTELLKRILDSNKRVQEAACSAFATLEEEACTELVPYLAYILDTLVFAFSKYQHKNLLILYDAIGTLADSVGHHLNKPEYIQMLMPPLIQKWNMLKDEDKDLFPLLECLSSVATALQSGFLPYCEPVYQRCVNLVQKTLAQAMLNNAQPDQYEAPDKDFMIVALDLLSGLAEGLGGNIEQLVARSNILTLMYQCMQDKMPEVRQSSFALLGDLTKACFQHVKPCIADFMPILGTNLNPEFISVCNNATWAIGEISIQMGIEMQPYIPMVLHQLVEIINRPNTPKTLLENTAITIGRLGYVCPQEVAPMLQQFIRPWCTSLRNIRDNEEKDSAFRGICTMISVNPSGVIQDFIFFCDAVASWINPKDDLRDMFCKILHGFKNQVGDENWRRFSDQFPLPLKERLAAFYGV
B4: sp¦O95373¦IPO7_HUMAN (protein, UniProt O95373 1-1038, looked up)
Importin-7: MDPNTIIEALRGTMDPALREAAERQLNEAHKSLNFVSTLLQITMSEQLDLPVRQAGVIYLKNMITQYWPDRETAPGDISPYTIPEEDRHCIRENIVEAIIHSPELIRVQLTTCIHHIIKHDYPSRWTAIVDKIGFYLQSDNSACWLGILLCLYQLVKNYEYKKPEERSPLVAAMQHFLPVLKDRFIQLLSDQSDQSVLIQKQIFKIFYALVQYTLPLELINQQNLTEWIEILKTVVNRDVPNETLQVEEDDRPELPWWKCKKWALHILARLFERYGSPGNVSKEYNEFAEVFLKAFAVGVQQVLLKVLYQYKEKQYMAPRVLQQTLNYINQGVSHALTWKNLKPHIQGIIQDVIFPLMCYTDADEELWQEDPYEYIRMKFDVFEDFISPTTAAQTLLFTACSKRKEVLQKTMGFCYQILTEPNADPRKKDGALHMIGSLAEILLKKKIYKDQMEYMLQNHVFPLFSSELGYMRARACWVLHYFCEVKFKSDQNLQTALELTRRCLIDDREMPVKVEAAIALQVLISNQEKAKEYITPFIRPVMQALLHIIRETENDDLTNVIQKMICEYSEEVTPIAVEMTQHLAMTFNQVIQTGPDEEGSDDKAVTAMGILNTIDTLLSVVEDHKEITQQLEGICLQVIGTVLQQHVLEFYEEIFSLAHSLTCQQVSPQMWQLLPLVFEVFQQDGFDYFTDMMPLLHNYVTVDTDTLLSDTKYLEMIYSMCKKVLTGVAGEDAECHAAKLLEVIILQCKGRGIDQCIPLFVEAALERLTREVKTSELRTMCLQVAIAALYYNPHLLLNTLENLRFPNNVEPVTNHFITQWLNDVDCFLGLHDRKMCVLGLCALIDMEQIPQVLNQVSGQILPAFILLFNGLKRAYACHAEHENDSDDDDEAEDDDETEELGSDEDDIDEDGQEYLEILAKQAGEDGDDEDWEEDDAEETALEGYSTIIDDEDNPVDEYQIFKAIFQTIQNRNPVWYQALTHGLNEEQRKQLQDIATLADQRRAAHESKMIEKHGGYKFSAPVVPSSFNFGGPAPGMN
B5: sp¦P41252¦SYIC_HUMAN (protein, UniProt P41252 1-1262, looked up)
Isoleucine--tRNA ligase, …: MLQQVPENINFPAEEEKILEFWTEFNCFQECLKQSKHKPKFTFYDGPPFATGLPHYGHILAGTIKDIVTRYAHQSGFHVDRRFGWDCHGLPVEYEIDKTLGIRGPEDVAKMGITEYNNQCRAIVMRYSAEWKSTVSRLGRWIDFDNDYKTLYPQFMESVWWVFKQLYDKGLVYRGVKVMPFSTACNTPLSNFESHQNYKDVQDPSVFVTFPLEEDETVSLVAWTTTPWTLPSNLAVCVNPEMQYVKIKDVARGRLLILMEARLSALYKLESDYEILERFPGAYLKGKKYRPLFDYFLKCKENGAFTVLVDNYVKEEEGTGVVHQAPYFGAEDYRVCMDFNIIRKDSLPVCPVDASGCFTTEVTDFAGQYVKDADKSIIRTLKEQGRLLVATTFTHSYPFCWRSDTPLIYKAVPSWFVRVENMVDQLLRNNDLCYWVPELVREKRFGNWLKDARDWTISRNRYWGTPIPLWVSDDFEEVVCIGSVAELEELSGAKISDLHRESVDHLTIPSRCGKGSLHRISEVFDCWFESGSMPYAQVHYPFENKREFEDAFPADFIAEGIDQTRGWFYTLLVLATALFGQPPFKNVIVNGLVLASDGQKMSKRKKNYPDPVSIIQKYGADALRLYLINSPVVRAENLRFKEEGVRDVLKDVLLPWYNAYRFLIQNVLRLQKEEEIEFLYNENTVRESPNITDRWILSFMQSLIGFFETEMAAYRLYTVVPRLVKFVDILTNWYVRMNRRRLKGENGMEDCVMALETLFSVLLSLCRLMAPYTPFLTELMYQNLKVLIDPVSVQDKDTLSIHYLMLPRVREELIDKKTESAVSQMQSVIELGRVIRDRKTIPIKYPLKEIVVIHQDPEALKDIKSLEKYIIEELNVRKVTLSTDKNKYGIRLRAEPDHMVLGKRLKGAFKAVMTSIKQLSSEELEQFQKTGTIVVEGHELHDEDIRLMYTFDQATGGTAQFEAHSDAQALVLLDVTPDQSMVDEGMAREVINRIQKLRKKCNLVPTDEITVYYKAKSEGTYLNSVIESHTEFIFTTIKAPLKPYPVSPSDKVLIQEKTQLKGSELEITLTRGSSLPGPACAYVNLNICANGSEQGGVLLLENPKGDNRLDLLKLKSVVTSIFGVKNTELAVFHDETEIQNQTDLLSLSGKTLCVTAGSAPSLINSSSTLLCQYINLQLLNAKPQECLMGTVGTLLLENPLGQNGLTHQGLLYEAAKVFGLRSRKLKLFLNETQTQEITEDIPVKTLNMKTVYVSVLPTTADF
B6: sp¦Q13637¦RAB32_HUMAN (protein, UniProt Q13637 2-225, looked up)
Ras-related protein Rab-32: AGGGAGDPGLGAAAAPAPETREHLFKVLVIGELGVGKTSIIKRYVHQLFSQHYRATIGVDFALKVLNWDSRTLVRLQLWDIAGQERFGNMTRVYYKEAVGAFVVFDISRSSTFEAVLKWKSDLDSKVHLPNGSPIPAVLLANKCDQNKDSSQSPSQVDQFCKEHGFAGWFETSAKDNINIEEAARFLVEKILVNHQSFPNEENDVDKIKLDQETLRAENKSQCC
B7: sp¦Q9Y2X3¦NOP58_HUMAN (protein, UniProt Q9Y2X3 1-529, looked up)
Nucleolar protein 58: MLVLFETSVGYAIFKVLNEKKLQEVDSLWKEFETPEKANKIVKLKHFEKFQDTAEALAAFTALMEGKINKQLKKVLKKIVKEAHEPLAVADAKLGGVIKEKLNLSCIHSPVVNELMRGIRSQMDGLIPGVEPREMAAMCLGLAHSLSRYRLKFSADKVDTMIVQAISLLDDLDKELNNYIMRCREWYGWHFPELGKIISDNLTYCKCLQKVGDRKNYASAKLSELLPEEVEAEVKAAAEISMGTEVSEEDICNILHLCTQVIEISEYRTQLYEYLQNRMMAIAPNVTVMVGELVGARLIAHAGSLLNLAKHAASTVQILGAEKALFRALKSRRDTPKYGLIYHASLVGQTSPKHKGKISRMLAAKTVLAIRYDAFGEDSSSAMGVENRAKLEARLRTLEDRGIRKISGTGKALAKTEKYEHKSEVKTYDPSGDSTLPTCSKKRKIEQVDKEDEITEKKAKKAKIKVKVEEEEEEKVAEEEETSVKKKKKRGKKKHIKEEPLSEEEPCTSTAIASPEKKKKKKKKRENED

System: human HL60 cells
Assay: SWATH-MS proteomics, differential protein representation, akirin2 KO vs WT HL60 cells
Format: cell-based
Settings: akirin2 KO vs WT HL60 cells; sheet "Under-represented in KO"
Summary of the method: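 Proteins from WT and akirin2 KO HL60 cells (n=3 biological replicates) were FASP trypsin-digested and analyzed by SWATH-MS DIA with variable windows against an IDA-derived spectral library. Identifications at 1% global FDR; quantities normalized to total area sums of all detected proteins.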

Molecule | Fold Change | Log (Fold Change)
B1 | 0.285 | -0.5451
B2 | 0.6441 | -0.191
B3 | 0.6517 | -0.186
B4 | 0.28 | -0.5528
B5 | 0.645 | -0.1904
B6 | 0.6519 | -0.1858
B7 | 0.6507 | -0.1866

— publication PMC8298264, “Function of cofactor Akirin2 in the regulation of gene expression in model human neutrophil-like HL60 cells” (Bioscience Reports, 2021)
